Biological target: recombinant Fc-tagged VEGFR2 extracellular domain (VEGFR2-ECD) (UniProt P35968)
Test: SPR; Biacore 8K, single-cycle mode, 25°C, HBS-P+ buffer; Fc-tagged VEGFR2-ECD (180 nM) captured on a protein A sensor chip at about 1,400 to 1,700 RU; analytes at 1.25, 2.5, 5, 10 and 20 nM, 30 uL/min; KD from the first on and off rates of the bivalent model

Chain of UniProt P35968 (P35968 20-764): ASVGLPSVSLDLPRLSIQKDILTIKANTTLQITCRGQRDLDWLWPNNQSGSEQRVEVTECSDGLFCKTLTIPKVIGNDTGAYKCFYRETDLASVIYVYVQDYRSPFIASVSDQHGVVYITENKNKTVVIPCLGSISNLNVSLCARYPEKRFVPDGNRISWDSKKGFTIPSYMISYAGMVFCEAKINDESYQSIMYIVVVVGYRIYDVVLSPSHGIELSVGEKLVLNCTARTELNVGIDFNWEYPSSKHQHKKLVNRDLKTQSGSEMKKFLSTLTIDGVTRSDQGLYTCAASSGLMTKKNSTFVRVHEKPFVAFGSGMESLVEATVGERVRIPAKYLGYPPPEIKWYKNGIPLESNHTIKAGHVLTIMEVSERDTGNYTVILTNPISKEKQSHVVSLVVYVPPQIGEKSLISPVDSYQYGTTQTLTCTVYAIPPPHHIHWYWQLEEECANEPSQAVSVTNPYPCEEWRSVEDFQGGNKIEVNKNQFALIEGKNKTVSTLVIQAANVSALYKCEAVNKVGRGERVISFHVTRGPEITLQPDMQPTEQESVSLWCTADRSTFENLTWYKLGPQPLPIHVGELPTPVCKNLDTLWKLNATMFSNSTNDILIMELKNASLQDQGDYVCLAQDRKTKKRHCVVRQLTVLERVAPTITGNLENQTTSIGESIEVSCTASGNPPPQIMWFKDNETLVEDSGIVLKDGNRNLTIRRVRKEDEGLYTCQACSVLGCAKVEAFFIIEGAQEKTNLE

B. bacilliformis-derived BafA passenger domain (BafABba) (domain or fragment)
Kd: 91.3 nM

B. henselae-derived BafA passenger domain (BafABhe) (domain or fragment)
Kd: 2.08 nM

recombinant human VEGF-A165 (ligand)
Kd: 6.91 nM

From PMC9044958
